# According to patent US20200277373A1 (DENALI THERAPEUTICS, published 2020):
# T1: His-tagged TREM2 ECD (ecto domain residues 19-172 of human TREM2, C-terminal 6X-His tag) (human, UniProt Q9NZC2 19-172)
# T1 construct: Made in Expi293F cells; the mouse Ig kappa secretion signal is not part of the mature protein; Biotinylated for the Octet binning; also called TREM2-His; TREM2-His protein
# T1 sequence: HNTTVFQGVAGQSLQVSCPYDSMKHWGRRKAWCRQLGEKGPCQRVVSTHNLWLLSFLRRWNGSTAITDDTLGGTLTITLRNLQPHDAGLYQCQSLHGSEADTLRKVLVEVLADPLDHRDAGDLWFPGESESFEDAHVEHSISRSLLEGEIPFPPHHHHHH
# T2: Human TREM2 protein, on cells (human, UniProt Q9NZC2 19-230)
# T2 construct: Wild type human TREM2 expressed with DAP12 on HEK293 cells (clone H6), or endogenous on primary human monocyte-derived macrophages; also called hTREM2-HEK; HEK293-H6
# T2 sequence: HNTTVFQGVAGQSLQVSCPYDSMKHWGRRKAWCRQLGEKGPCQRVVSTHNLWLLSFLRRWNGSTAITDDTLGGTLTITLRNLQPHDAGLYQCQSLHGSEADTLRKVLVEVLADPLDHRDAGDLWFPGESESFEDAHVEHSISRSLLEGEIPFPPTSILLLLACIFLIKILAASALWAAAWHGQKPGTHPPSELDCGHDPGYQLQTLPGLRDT
# T3: Mouse TREM2, on cells (mouse, UniProt Q99NH8 19-227)
# T3 construct: whole, on cells; also called mouse TREM2 HEK
# T3 sequence (looked up): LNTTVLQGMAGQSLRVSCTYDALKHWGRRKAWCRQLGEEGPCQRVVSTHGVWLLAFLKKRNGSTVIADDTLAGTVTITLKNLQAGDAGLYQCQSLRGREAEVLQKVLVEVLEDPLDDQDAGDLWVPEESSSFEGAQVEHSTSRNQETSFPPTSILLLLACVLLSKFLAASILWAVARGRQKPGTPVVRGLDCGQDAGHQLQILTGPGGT
# T4: Human TREM2 synthetic 9-mer peptide DLWFPGESE (human)
# T4 construct: also called TREM2 peptide; TREM2 9-mer peptide
# T4 peptide: DLWFPGESE
# What was measured:
# [1] = biological target: T1, His-tagged TREM2 ECD (ecto domain …); experiment: Biacore T200, antibody captured, antigen injected, 1:1 model
# Experimental: (§1) To measure TfR binding, anti-human-Fab was immobilized on a CM5 chip, and the TREM2/TfR-binding protein was captured. Full-length human TfR or human TfR apical domain at serial dilution (e.g., concentrations of 1-1000 nM) was flowed over the chip (180 second association time) and then allowed to dissociate. Fitting was performed using a 1:1 binding model. To measure TREM2 binding, anti-human-Fc antibody was immobilized on a CM5 chip, and the TREM2/TfR-binding protein was captured. A range of concentrations of recombinant TREM2-His protein were flowed over the chip, and allowed to associate and dissociate. The resulting sensograms were fitted using a 1:1 Langmuir model to estimate kₒₙ and koff (FIG. 10).
# (§2) Biacore Series S CM5 sensor chips were immobilized with a mixture of two monoclonal mouse anti-Fab antibodies (Human Fab capture kit from GE Healthcare). Serial 3-fold dilutions of each antigen were injected at a flow rate of 30 μL/min. The binding of the antigens to captured antibody was monitored for 30 to 180 seconds and then their dissociation was monitored for 30-300 seconds in HBS-EP+running buffer (GE, # BR100669). Binding response was corrected by subtracting the RU from a blank flow cell. A 1:1 Languir model of simultaneous fitting of kₒₙ and koff was used for kinetics analysis.
# [2] = biological target: T2, Human TREM2 protein, on cells; experiment: cell binding, human TREM2-expressing HEK cells, flow cytometry titration
# [3] = biological target: T2, Human TREM2 protein, on cells; experiment: cell-based or functional assay
# Mouse TREM2, on cells [4] = biological target: T3, Mouse TREM2, on cells; experiment: flow cytometry, 293F cells overexpressing mouse TREM2
# Experimental: (§3) After labeling, cells were washed twice with 1×PBS. […] Mixed cell lines were seeded at 300,000 cells per well in a 96-well round-bottom and incubated 20 minutes at room temperature. After incubation, cells were centrifuged and test anti-TREM2 antibodies were added, then incubated for 45 minutes on ice. After incubation, cells were centrifuged and washed with FACS buffer three times.
# (§4) The data in Table 2 is presented as fold over binding (FOB).
# [5] = biological target: T2, Human TREM2 protein, on cells; experiment: flow cytometry, HEK293 cells overexpressing human TREM2
# Experimental: as §3, §4
# [6] = biological target: T2, Human TREM2 protein, on cells; experiment: cell-based or functional assay; remark: listed apart in the source
# [7] = biological target: T1, His-tagged TREM2 ECD (ecto domain …); experiment: Table 1 Kd; Biacore, TREM2-His analyte (presumed)
# Experimental: Anti-murine Fc antibody (obtained from GE Healthcare) was immobilized on the surface of a CM5 chip (obtained from GE Healthcare) through amine-coupling to reach about 6,000 to 8,000 response units (RU). The surface was activated by injection of a mixture of 1-ethyl-3-(3-dimethylaminopropyl)-carbodiimide (EDC) and N-hydroxysuccinimide (NHS), both obtained from GE Healthcare, for 7 minutes. Anti-murine Fc antibody was diluted in sodium acetate (pH 5.0) at 25 μg/mL and injected for 10 minutes at a flow rate of 5 μL/minute, followed by injection of ethanolamine (obtained from GE Healthcare) for 7 minutes.
# Purified anti-TREM2 hybridoma (20 μg/mL) was captured to reach 1000-1500 RU. A range of serially-diluted TREM2-His protein (e.g., 3.4 nM to 300 nM) was injected at a flow rate of 30 μL/minute, using either single-cycle kinetics methods. Sensorgrams were fitted using a 1:1 Langmuir model to estimate kₒₙ and koff.
# Mouse TREM2, on cells [8] = biological target: T3, Mouse TREM2, on cells; experiment: flow cytometry titration on mTREM2-293F cells
# Text: (§5) FIGS. 1A-1D. […] (A) Anti-TREM2 antibodies were screened for binding to HEK cells expressing human TREM2 (unlabeled) and mouse TREM2 HEK expressing cells (labeled with NucBlue). Antibody binding was detected with a secondary anti-mouse multiple adsorption antibody conjugated to APC. […] (B) Parental HEK-GFP cells were used as a negative control to rule out non-specific binding. (C) Anti-TREM2 antibody surface binding dose response in hTREM2-HEK cells. Anti-TREM2 antibodies were titrated for binding to HEK cells expressing human TREM2. Antibody binding was detected with a secondary anti-mouse multiple adsorption antibody conjugated to APC. […] Mouse TREM2 HEK cells were titrated for binding as in (C).
# as §3
# [9] = biological target: T2, Human TREM2 protein, on cells; experiment: flow cytometry titration on hTREM2-HEK cells
# Text: as §5, §3
# Mouse TREM2, on cells [10] = biological target: T3, Mouse TREM2, on cells; experiment: Table 5, cell binding: Mouse TREM2 HEK
# [11] = biological target: T5, Human transferrin receptor apical domain (human, UniProt P02786 198-378, limits assumed); experiment: Biacore T200, antibody captured, antigen injected, 1:1 model
# T5 construct: also called hTfR apical domain; TfR apical domain
# Experimental: as §1, §2
# [12] = biological target: T4, Human TREM2 synthetic 9-mer peptide …; experiment: X-ray co-crystal structure
# Text: The synthetic 9-mer peptide […] (SEQ ID NO:335), corresponding to amino acid residues 140-148 of human TREM2 (according to UniProtKB entry TREM2_HUMAN) was used for co-crystallization.
# T5 sequence (P02786 198-378 limits assumed): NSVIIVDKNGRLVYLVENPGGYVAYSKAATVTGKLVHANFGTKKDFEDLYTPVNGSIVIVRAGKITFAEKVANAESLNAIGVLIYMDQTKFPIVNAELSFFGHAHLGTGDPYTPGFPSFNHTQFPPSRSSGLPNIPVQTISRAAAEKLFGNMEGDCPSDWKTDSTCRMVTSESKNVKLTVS
Binder,Kd [1] [nM],koff [1] [s⁻¹],kon [1] [M⁻¹ s⁻¹],EC50 [2] [nM],"STREM2 decrease (nM), EC50 [3] [nM]","pSyk (nM), EC50 [3] [nM]","FOB (fold over binding) (Mouse TREM2, on cells [4]) [fold]",FOB (fold over binding) [5] [fold],pSyk FOB (30 nM Ab) [6] [fold over background],Kd [7] [nM],"EC50 (Mouse TREM2, on cells [8]) [nM]",EC50 [9] [nM],"binding result (Mouse TREM2, on cells [10])",Kd [11] [nM],koff [11] [s⁻¹],kon [11] [M⁻¹ s⁻¹],binding result [12]
"RS9.F6 (antibody, V domains shown) VH: QVQLQQPGAELVKPGASVKLSCKASGYTFTSYWMHWVKQSPGRGLEWIGRSDPTTGGTNYNEKFKTKATLTVDKPSSTAYMQLSSLTSDDSAVYYCVRTSGTGDYWGQGTSLTVSS VL: DVVMTQTPLSLPVSLGDQASISCRSSQSLVHNNGNTFLHWYLQKPGQSPKLLIYKVSNRFSGVPDRFSGSGSGTDFTLKISRVEAEDLGVYFCSQTTHVPPTFGGGTKLEIK",2.3,0.00034,150000,1.62,0.3,15.9,73,13.2,8.49,0.733,< 8,< 2,–,–,–,–,–
"24B4.A1 (antibody, V domains shown, Mouse hybridoma antibody, Ig2a, k; same entries as 26E2.A3; also called RS8.24B4.A1) VH: QVHLQQSGSELRSPGSSVKLSCKDFDSEVFPISYMSWIRQKPGHGFEWIGDILPSIGGRIYGVKFEDRATLDADTVSNTAYLELNSLTSEDSAIYYCARKDYGSLAYWGQGTLVTVSA VL: DVVMTQTPLSLPVSLGDQASISCRSSQSLVHINGNTYLQWFLQKPGQSPKLLIYKVSNRFSGVPDRFSGSGSGTAFTLKISRVEAEDLGVYFCSQSTHVPYTFGGGTKLEIK",–,–,–,7.5,–,49.8,1.5,8.6,17.3,12.4,–,–,no binding,–,–,–,–
"54C2.A1 (antibody, V domains shown, Mouse hybridoma antibody, Ig2b, k; also called RS8.54C2.A1) VH: QVHLQQSGSELRSPGSSVKLSCKDFDSEVFPIAYMSWVRQKPGHGFEWIGDILPSIGRRIYGVKFEDKATLDADTVSNTAYLELNSLTSEDSAIYYCTRKDYGSLAYWGQGTLVTVSA VL: DVVMTQTPLSLPVSLGDQASISCRSSQSLVHINGNTYLQWYLQKPGQSPKLLIYKVSNRFSGVPDRFSGSGSGTDFTLRISRVEAEDLGVYFCSQSTHLPYTFGGGTKLEIK",–,–,–,4.09,–,456,1.7,12.8,6.56,2.19,–,–,no binding,–,–,–,–
"RS9.F10 (antibody, V domains shown, same entries as RS9.F6; also called RS.F10) VH: QVQLQQPGAELVKPGASVKLSCKASGYTFTSYWMHWVKQSPGRGLEWIGRSDPTTGGTNYNEKFKTKATLTVDKPSSTAYMQLSSLTSDDSAVYYCVRTSGTGDYWGQGTSLTVSS VL: DVVMTQTPLSLPVSLGDQASISCRSSQSLVHNNGNTFLHWYLQKPGQSPKLLIYKVSNRFSGVPDRFSGSGSGTDFTLKISRVEAEDLGVYFCSQTTHVPPTFGGGTKLEIK",–,–,–,1.54,–,20.5,75.8,12.9,9.89,0.852,< 8,< 2,–,–,–,–,–
"RS9.F6/3C.35.21.17 (bispecific antibody, human IgG1, L234A L235A, second: RS9.F6 Fd on Fc with LALAPG and hole mutations; Vectors co-transfected 1:1:2; also called RS9.F6/3C35.21.17_LALAPG; ATV-Anti-TREM2) heavy 1: QVQLQQPGAELVKPGASVKLSCKASGYTFTSYWMHWVKQSPGRGLEWIGRSDPTTGGTNYNEKFKTKATLTVDKPSSTAYMQLSSLTSDDSAVYYCVRTSGTGDYWGQGTSLTVSSASTKGPSVFPLAPSSKSTSGGTAALGCLVKDYFPEPVTVSWNSGALTSGVHTFPAVLQSSGLYSLSSVVTVPSSSLGTQTYICNVNHKPSNTKVDKKVEPKSCDKTHTCPPCPAPEAAGGPSVFLFPPKPKDTLMISRTPEVTCVVVDVSHEDPEVKFNWYVDGVEVHNAKTKPREEQYNSTYRVVSVLTVLHQDWLNGKEYKCKVSNKALGAPIEKTISKAKGQPREPQVYTLPPSRDELTKNQVSLWCLVKGFYPSDIAVLWESYGTEWASYKTTPPVLDSDGSFFLYSKLTVTKEEWQQGFVFSCSVMHEALHNHYTQKSLSLSPGK heavy 2: QVQLQQPGAELVKPGASVKLSCKASGYTFTSYWMHWVKQSPGRGLEWIGRSDPTTGGTNYNEKFKTKATLTVDKPSSTAYMQLSSLTSDDSAVYYCVRTSGTGDYWGQGTSLTVSSASTKGPSVFPLAPSSKSTSGGTAALGCLVKDYFPEPVTVSWNSGALTSGVHTFPAVLQSSGLYSLSSVVTVPSSSLGTQTYICNVNHKPSNTKVDKKVEPKSCDKTHTCPPCPAPEAAGGPSVFLFPPKPKDTLMISRTPEVTCVVVDVSHEDPEVKFNWYVDGVEVHNAKTKPREEQYNSTYRVVSVLTVLHQDWLNGKEYKCKVSNKALGAPIEKTISKAKGQPREPQVYTLPPSRDELTKNQVSLSCAVKGFYPSDIAVEWESNGQPENNYKTTPPVLDSDGSFFLVSKLTVDKSRWQQGNVFSCSVMHEALHNHYTQKSLSLSPGK light: DVVMTQTPLSLPVSLGDQASISCRSSQSLVHNNGNTFLHWYLQKPGQSPKLLIYKVSNRFSGVPDRFSGSGSGTDFTLKISRVEAEDLGVYFCSQTTHVPPTFGGGTKLEIK",2.6,0.00038,150000,–,–,–,–,–,–,–,–,–,–,110,0.19,1.7e+06,–
"F6 Fab (Fab fragment of anti-TREM2 antibody RS9.F6) (Fab, V domains shown, Fab expressed in Expi-293 cells; also called TREM2 Fab) VH: QVQLQQPGAELVKPGASVKLSCKASGYTFTSYWMHWVKQSPGRGLEWIGRSDPTTGGTNYNEKFKTKATLTVDKPSSTAYMQLSSLTSDDSAVYYCVRTSGTGDYWGQGTSLTVSS VL: DVVMTQTPLSLPVSLGDQASISCRSSQSLVHNNGNTFLHWYLQKPGQSPKLLIYKVSNRFSGVPDRFSGSGSGTDFTLKISRVEAEDLGVYFCSQTTHVPPTFGGGTKLEIK",–,–,–,–,–,–,–,–,–,–,–,–,–,–,–,–,binds
